T1: PACAP38 (human, K at residue 38 modified by C-terminal amidation)
T1 peptide: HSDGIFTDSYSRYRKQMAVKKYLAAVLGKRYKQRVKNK

T2: PACAP27 (human, L at residue 27 modified by C-terminal amidation)
T2 peptide: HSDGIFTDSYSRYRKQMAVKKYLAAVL

T3: VIP (UniProt P01282 125-152)
T3 peptide (looked up): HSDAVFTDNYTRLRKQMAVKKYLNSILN

T4: N-terminal biotinylated PACAP38 (Anaspec, #23590) (human, N-terminal biotin; K at residue 38 modified by C-terminal amidation (as stated for SEQ ID NO 13))
T4 construct: Bought peptide; also called Antigen (PACAP38)
T4 peptide: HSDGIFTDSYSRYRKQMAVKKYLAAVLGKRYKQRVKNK

T5: N-terminal biotinylated PACAP27 (custom synthesis, CPC Scientific) (human, N-terminal biotin; L at residue 27 modified by C-terminal amidation (as stated for SEQ ID NO 14))
T5 construct: Custom peptide; also called Antigen (PACAP27)
T5 peptide: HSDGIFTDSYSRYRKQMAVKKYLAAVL

B1: Exemplified Antibody B (antibody, human IgG4 S228P, kappa, F234A L235A, V domains shown)
VH: EVQLLESGGGLVQPGGSLRLSCAASGFTFSSYYMSWVRQAPGKGLEWVSAISLSGGSTYYAASHKGRFTISRDNSKNTLYLQMNSLRAEDTAVYYCVREVGASTHNYYGMDVWGQGTMVTVSS
VL: DIQMTQSPSSLSASVGDRVTITCRASQSIWRWLAWYQQKPGKAPKLLIHDASQLFEGVPSRFSGSGSGTDFTFTISSLQPEDIATYYCQQFDLLPLTFGGGTKVEIKR
notes: IgG4, kappa light chain; also called Exemplified Ab B; Ab B
B2: Exemplified Antibody A (antibody, human IgG4 S228P, kappa, F234A L235A, V domains shown)
VH: EVQLLESGGGLVQPGGSLRLSCAASGFTFSSYYMSWVRQAPGKGLEWVSAISLSGGSTYYADSHKGRFTISRDNSKNTLYLQMNSLRAEDTAVYYCVREVGASNHNYYGMDVWGQGTMVTVSS
VL: DIQMTQSPSSLSASVGDRVTITCRASQSISRWLAWYQQKPGKAPKLLIHDASQLLEGVPSRFSGSGSGTDFTFTISSLQPEDIATYYCQQFDLLPLTFGGGTKVEIKR
notes: IgG4, kappa light chain; also called Exemplified Ab A; Ab A
B3: Exemplified Antibody C (antibody, human IgG4 S228P, kappa, F234A L235A, V domains shown)
VH: EVQLLESGGGLVQPGGSLRLSCAASGFTFSSYYMSWVRQAPGKGLEWVSAISLSGGSTYYAESHKGRFTISRDNSKNTLYLQMNSLRAEDTAVYYCVREVGASTHNYYGMDVWGQGTMVTVSS
VL: DIQMTQSPSSLSASVGDRVTITCRASQSIWRWLAWYQQKPGKAPKLLIHDASQLFEGVPSRFSGSGSGTDFTFTISSLQPEDIATYYCQQFDLLPLTFGGGTKVEIKR
notes: IgG4, kappa light chain; also called Exemplified Ab C; Ab C
B4: Exemplified Antibody D (antibody, human IgG4 S228P, kappa, F234A L235A, V domains shown)
VH: EVQLLESGGGLVQPGGSLRLSCAASGFTFSSYYMSWVRQAPGKGLEWVSAISLSGGSTYYAQSHKGRFTISRDNSKNTLYLQMNSLRAEDTAVYYCVREVGASTHNYYGMDVWGQGTMVTVSS
VL: DIQMTQSPSSLSASVGDRVTITCRASQSIWRWLAWYQQKPGKAPKLLIHDASQLFEGVPSRFSGSGSGTDFTFTISSLQPEDIATYYCQQFDLLPLTFGGGTKVEIKR
notes: IgG4, kappa light chain; also called Exemplified Ab D; Ab D

Key:
[1] = target: T1, PACAP38; test: cell-based or functional assay
[2] = target: T2, PACAP27; test: cell-based or functional assay
[3] = target: T1, PACAP38; test: cell-based or functional assay
[4] = target: T2, PACAP27; test: cell-based or functional assay
[5] = target: T3, VIP; test: cell-based or functional assay
[6] = target: T2, PACAP27; test: cell-based or functional assay
[7] = target: T1, PACAP38; test: cell-based or functional assay
[8] = target: T4, N-terminal biotinylated PACAP38 …; test: kinetic exclusion 96-well MSD plate assay, solution equilibrium at 37 C, 30 pM biotinylated antigen
Procedure: (§1) Binding affinity (KD) for each antibody-antigen complex is determined using a kinetic exclusion 96-well plate-based assay (adapted from Estep et al., mAbs, 2013, 5:270-278). Briefly, a 3-fold dilution series for each Exemplified Ab (set forth in Table 1) is prepared from a starting concentration of 7290 pM to 41 fM; each series including an antibody-blank control. Samples are prepared in 3% (w/v) Blocker A solution (MSD, #R93AA-1) and a fixed final antigen concentration of 30 pM of N-terminal biotinylated PACAP27 (custom synthesis, CPC Scientific) or N-terminal biotinylated PACAP38 (Anaspec, #23590) is added to each sample. A volume of 100 μl of each antigen-antibody sample is added to individual wells of a 96-well microtiter plate (Greiner, EK-20101) in duplicate. The plate is sealed with optical adhesive film (Thermo Fisher Scientific, #4311971) and incubated at 37° C. for 3 to 4 days to allow for sample equilibrium. On the day before analysis, each row of a 96-well MSD Standard plate (MSD, #L15XA) is coated with 30 μl of the corresponding antibody (as used in the titration series) at a concentration of 3 μg/ml in phosphate buffered saline (PBS). On the day of the experiment, the MSD Standard plate is washed once with 150 μl PBS and blocked with 150 μl of 3% Blocker A solution for 45 min at 30° C. with shaking at 300 rpm on a MaxQ 4450 benchtop shaker (Thermo Fisher Scientific). Following three washes with PBS, 50 μl of each antigen-antibody sample (prepared and incubated as described above) is added to the MSD Standard plate and incubated for 150 seconds at 30° C. with shaking at 300 rpm. Following a single wash with PBS, 50 μl of 1 μg/ml SULFO-TAG labeled Streptavidin (MSD, #R32AD-5) prepared in 1% (w/v) Blocker A solution is added and the MSD Standard plate and the plate is incubated at 30° C. for 3 minutes with shaking at 300 rpm. The plate is washed three more times with PBS followed by the addition of 150 μl/well of 1× Read buffer (MSD, #R92TC-2). The MSD Standard plate is read using a MESO Quickplex SQ 120/1300 instrument (Meso Scale Discovery). Data analysis is done using SigmaPlot (Version 12.5, Systat Software) and binding affinity (KD) is determined using SigmaPlot's integrated Four Parameter Logistic Curve Model.

[9] = target: T5, N-terminal biotinylated PACAP27 (custom …); test: as above
Procedure: as §1

[10] = target: T1, PACAP38; test: cell-based or functional assay
[11] = target: T1, PACAP38; test: cell-based or functional assay
[12] = target: T2, PACAP27; test: cell-based or functional assay

| Molecule | Inhibition (IC50) of PACAP38 (100 pM) induced cAMP in hPAC1 CHO-K1 cells [3] [pM] | Inhibition (IC50) of PACAP38 (800 pM) induced cAMP in hVPAC2 CHO-K1 cells [3] [pM] | Inhibition (IC50) of PACAP27 (100 pM) induced cAMP in hPAC1 CHO-K1 cells [4] [pM] | Inhibition (IC50) of PACAP27 (800 pM) induced cAMP in hVPAC2 CHO-K1 cells [4] [pM] | Inhibition (IC50) of VIP (800 pM) induced cAMP in hVPAC2 CHO-K1 cells [5] [pM] | Percentage tryptase release upon addition of PACAP27; antibody dose 0 uM [6] [%] | Percentage tryptase release upon addition of PACAP27; antibody dose 0.2 uM [6] [%] | Percentage tryptase release upon addition of PACAP27; antibody dose 0.6 uM [6] [%] | Percentage tryptase release upon addition of PACAP27; antibody dose 1.8 uM [6] [%] | Percentage tryptase release upon addition of PACAP27; antibody dose 5.6 uM [6] [%] | Percentage tryptase release upon addition of PACAP27; antibody dose 17 uM [6] [%] | Percentage tryptase release upon addition of PACAP27; antibody dose 51 uM [6] [%] | Percentage tryptase release upon addition of PACAP27; antibody dose 153 uM [6] [%] | Plasma cAMP levels in CD-1 mice after iv PACAP38 (13 nmols/kg); antibody 10 mg/kg sc [7] [nM] | Kd [8] [nM] | Kd [9] [nM] | Percentage tryptase release upon addition of PACAP38; antibody dose 0 uM [10] [%] | Percentage tryptase release upon addition of PACAP38; antibody dose 0.2 uM [10] [%] | Percentage tryptase release upon addition of PACAP38; antibody dose 0.6 uM [10] [%] | Percentage tryptase release upon addition of PACAP38; antibody dose 1.8 uM [10] [%] | further results |
| --- | --- | --- | --- | --- | --- | --- | --- | --- | --- | --- | --- | --- | --- | --- | --- | --- | --- | --- | --- | --- | --- |
| IgG4 mAb (negative control) (antibody) | – | – | – | – | – | – | – | – | – | – | – | – | – | – | – | – | – | – | – | – | Percentage tryptase release in human mast cells upon addition of 1 uM PACAP38; negative control antibody, single point [1]: 104%; Percentage tryptase release upon addition of PACAP38; negative control antibody dose 153 uM [1]: 79.6%; Plasma cAMP levels in CD-1 mice after iv PACAP38 (13 nmols/kg); control antibody 10 mg/kg sc [1]: 4.09 µM; Percentage tryptase release in human mast cells upon addition of 1 uM PACAP27; negative control antibody, single point [2]: 110%; Percentage tryptase release upon addition of PACAP27; negative control antibody dose 153 uM [2]: 94.8% |
| B1 | 265 | 294 | 270 | 605 | > 100000 | 85.2 | 78.1 | 54 | 11.7 | 8.1 | 11.6 | 19.4 | 10.3 | 715 | 0.0128 | 0.0116 | 77.2 | 73.7 | 52.4 | 25.2 | Percentage tryptase release upon addition of PACAP38; antibody dose 5.6 uM [10]: 22%; Percentage tryptase release upon addition of PACAP38; antibody dose 17 uM [10]: 14.9%; Percentage tryptase release upon addition of PACAP38; antibody dose 51 uM [10]: 14.6%; Percentage tryptase release upon addition of PACAP38; antibody dose 153 uM [10]: 2%; Percentage tryptase release in human mast cells upon addition of 1 uM PACAP38; antibody 153 uM, single point [11]: 4.9%; Percentage tryptase release in human mast cells upon addition of 1 uM PACAP27; antibody 153 uM, single point [12]: 21% |
| B2 | 554 | 714 | 2250 | 781 | > 100000 | – | – | – | – | – | – | – | – | – | – | 0.037 | – | – | – | – | – |
| B3 | 303 | 325 | 311 | 595 | > 100000 | 85.8 | 85.2 | 55.4 | 10.4 | 11.5 | 8 | 17.8 | 9.7 | 666 | 0.0146 | 0.0145 | 80.3 | 77.6 | 66.6 | 26.5 | Percentage tryptase release upon addition of PACAP38; antibody dose 5.6 uM [10]: 21.9%; Percentage tryptase release upon addition of PACAP38; antibody dose 17 uM [10]: 15.5%; Percentage tryptase release upon addition of PACAP38; antibody dose 51 uM [10]: 12.1%; Percentage tryptase release upon addition of PACAP38; antibody dose 153 uM [10]: 2.8%; Percentage tryptase release in human mast cells upon addition of 1 uM PACAP38; antibody 153 uM, single point [11]: 5.5%; Percentage tryptase release in human mast cells upon addition of 1 uM PACAP27; antibody 153 uM, single point [12]: 14.2% |
| B4 | 205 | 243 | 212 | 515 | > 100000 | 92.7 | 86.5 | 73 | 20.3 | 16.4 | 19.8 | 26 | 9.4 | 560 | 0.009 | 0.0105 | 76.5 | 74 | 64.5 | 31.3 | Percentage tryptase release upon addition of PACAP38; antibody dose 5.6 uM [10]: 25.9%; Percentage tryptase release upon addition of PACAP38; antibody dose 17 uM [10]: 19.6%; Percentage tryptase release upon addition of PACAP38; antibody dose 51 uM [10]: 14.7%; Percentage tryptase release upon addition of PACAP38; antibody dose 153 uM [10]: 1.7%; Percentage tryptase release in human mast cells upon addition of 1 uM PACAP38; antibody 153 uM, single point [11]: 4.2%; Percentage tryptase release in human mast cells upon addition of 1 uM PACAP27; antibody 153 uM, single point [12]: 15.1% |
